Measured values reported in article doi:10.1101/2022.06.26.497666 (bioRxiv, 2022).

T1: NLRP1 (wild-type full-length human NLRP1) (human, UniProt Q9C000-1)
T1 sequence: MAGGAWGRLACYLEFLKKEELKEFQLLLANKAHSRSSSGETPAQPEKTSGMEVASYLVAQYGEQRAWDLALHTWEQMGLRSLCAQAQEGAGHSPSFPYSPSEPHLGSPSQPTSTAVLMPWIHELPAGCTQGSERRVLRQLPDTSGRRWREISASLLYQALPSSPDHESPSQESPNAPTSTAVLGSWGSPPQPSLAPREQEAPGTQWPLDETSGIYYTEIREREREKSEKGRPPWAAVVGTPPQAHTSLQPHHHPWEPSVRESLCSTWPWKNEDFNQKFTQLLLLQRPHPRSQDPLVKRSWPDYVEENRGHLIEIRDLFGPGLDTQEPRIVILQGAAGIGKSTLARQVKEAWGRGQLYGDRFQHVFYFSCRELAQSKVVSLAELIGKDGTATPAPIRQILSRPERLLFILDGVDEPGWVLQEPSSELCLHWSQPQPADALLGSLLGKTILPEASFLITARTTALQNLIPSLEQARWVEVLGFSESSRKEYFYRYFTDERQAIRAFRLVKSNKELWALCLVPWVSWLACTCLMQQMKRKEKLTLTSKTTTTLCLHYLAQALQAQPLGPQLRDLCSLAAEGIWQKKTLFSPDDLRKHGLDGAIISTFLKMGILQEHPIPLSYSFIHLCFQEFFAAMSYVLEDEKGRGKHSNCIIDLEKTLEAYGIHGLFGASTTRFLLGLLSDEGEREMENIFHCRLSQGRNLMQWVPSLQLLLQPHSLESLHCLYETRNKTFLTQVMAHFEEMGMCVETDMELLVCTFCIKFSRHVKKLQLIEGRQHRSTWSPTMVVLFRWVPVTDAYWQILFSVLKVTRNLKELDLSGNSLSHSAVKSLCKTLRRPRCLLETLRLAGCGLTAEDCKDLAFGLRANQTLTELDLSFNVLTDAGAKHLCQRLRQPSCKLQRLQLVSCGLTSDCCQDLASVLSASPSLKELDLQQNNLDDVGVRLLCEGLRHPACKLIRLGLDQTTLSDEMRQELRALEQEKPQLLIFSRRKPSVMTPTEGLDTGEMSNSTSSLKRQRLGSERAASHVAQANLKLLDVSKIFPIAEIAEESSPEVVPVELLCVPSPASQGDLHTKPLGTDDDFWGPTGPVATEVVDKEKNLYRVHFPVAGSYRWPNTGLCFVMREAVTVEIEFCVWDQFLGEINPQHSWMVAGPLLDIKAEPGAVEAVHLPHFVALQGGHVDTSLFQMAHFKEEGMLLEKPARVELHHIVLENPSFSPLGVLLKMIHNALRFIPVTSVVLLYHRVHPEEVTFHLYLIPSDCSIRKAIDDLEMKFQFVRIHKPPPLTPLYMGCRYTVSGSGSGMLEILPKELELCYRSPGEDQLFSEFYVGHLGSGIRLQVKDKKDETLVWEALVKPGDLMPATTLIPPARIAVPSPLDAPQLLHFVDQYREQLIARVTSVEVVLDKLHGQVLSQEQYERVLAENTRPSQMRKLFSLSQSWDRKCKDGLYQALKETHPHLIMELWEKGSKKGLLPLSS


Assays:
[1] = target: the molecule itself; experiment: SEC + other: negative-stain EM
[2] = target: T1, NLRP1 (wild-type full-length human …); experiment: co-IP

binding result [2]	Binder	binding result [1]
–	MBP-NLRP1 NACHT-LRR F787_R843del mutant (domain or fragment) GRPPWAAVVGTPPQAHTSLQPHHHPWEPSVRESLCSTWPWKNEDFNQKFTQLLLLQRPHPRSQDPLVKRSWPDYVEENRGHLIEIRDLFGPGLDTQEPRIVILQGAAGIGKSTLARQVKEAWGRGQLYGDRFQHVFYFSCRELAQSKVVSLAELIGKDGTATPAPIRQILSRPERLLFILDGVDEPGWVLQEPSSELCLHWSQPQPADALLGSLLGKTILPEASFLITARTTALQNLIPSLEQARWVEVLGFSESSRKEYFYRYFTDERQAIRAFRLVKSNKELWALCLVPWVSWLACTCLMQQMKRKEKLTLTSKTTTTLCLHYLAQALQAQPLGPQLRDLCSLAAEGIWQKKTLFSPDDLRKHGLDGAIISTFLKMGILQEHPIPLSYSFIHLCFQEFFAAMSYVLEDEKGRGKHSNCIIDLEKTLEAYGIHGLFGASTTRFLLGLLSDEGEREMENIFHCRLSQGRNLMQWVPSLQLLLQPHSLESLHCLYETRNKTFLTQVMAHFEEMGMCVETDMELLVCTFCIKFSRHVKKLQLIEGRQHRSTWSPTMVVLLAGCGLTAEDCKDLAFGLRANQTLTELDLSFNVLTDAGAKHLCQRLRQPSCKLQRLQLVSCGLTSDCCQDLASVLSASPSLKELDLQQNNLDDVGVRLLCEGLRHPACKLIRLGLDQTTLSDEMRQELRALEQEKPQLLIFSRRKPSVMTP	binds
–	MBP-NLRP1 NACHT-LRR R726W mutant (domain or fragment) GRPPWAAVVGTPPQAHTSLQPHHHPWEPSVRESLCSTWPWKNEDFNQKFTQLLLLQRPHPRSQDPLVKRSWPDYVEENRGHLIEIRDLFGPGLDTQEPRIVILQGAAGIGKSTLARQVKEAWGRGQLYGDRFQHVFYFSCRELAQSKVVSLAELIGKDGTATPAPIRQILSRPERLLFILDGVDEPGWVLQEPSSELCLHWSQPQPADALLGSLLGKTILPEASFLITARTTALQNLIPSLEQARWVEVLGFSESSRKEYFYRYFTDERQAIRAFRLVKSNKELWALCLVPWVSWLACTCLMQQMKRKEKLTLTSKTTTTLCLHYLAQALQAQPLGPQLRDLCSLAAEGIWQKKTLFSPDDLRKHGLDGAIISTFLKMGILQEHPIPLSYSFIHLCFQEFFAAMSYVLEDEKGRGKHSNCIIDLEKTLEAYGIHGLFGASTTRFLLGLLSDEGEREMENIFHCRLSQGRNLMQWVPSLQLLLQPHSLESLHCLYETWNKTFLTQVMAHFEEMGMCVETDMELLVCTFCIKFSRHVKKLQLIEGRQHRSTWSPTMVVLFRWVPVTDAYWQILFSVLKVTRNLKELDLSGNSLSHSAVKSLCKTLRRPRCLLETLRLAGCGLTAEDCKDLAFGLRANQTLTELDLSFNVLTDAGAKHLCQRLRQPSCKLQRLQLVSCGLTSDCCQDLASVLSASPSLKELDLQQNNLDDVGVRLLCEGLRHPACKLIRLGLDQTTLSDEMRQELRALEQEKPQLLIFSRRKPSVMTP	binds
binds	CARD8-T60 isoform (full-length) (natural protein) MEKKECPEKSSSSEEELPRRDSGSSRNIDASKLIRLQGSRKLLVDNSIRELQYTKTGIFFQAEACVTNDTVYRELPCVSETLCDISHFFQEDDETEAEPLLFRAVPECQLSGGDIPSVSEEQESSEGQDSGDICSEENQIVSSYASKVCFEIEEDYKNRQFLGPEGNVDVELIDKSTNRYSVWFPTAGWYLWSATGLGFLVRDEVTVTIAFGSWSQHLALDLQHHEQWLVGGPLFDVTAEPEEAVAEIHLPHFISLQAGEVDVSWFLVAHFKNEGMVLEHPARVEPFYAVLESPSFSLMGILLRIASGTRLSIPITSNTLIYYHPHPEDIKFHLYLVPSDALLTKAIDDEEDRFHGVRLQTSPPMEPLNFGSSYIVSNSANLKVMPKELKLSYRSPGEIQHFSKFYAGQMKEPIQLEITEKRHGTLVWDTEVKPVDLQLVAASAPPPFSGAAFVKENHRQLQARMGDLKGVLDDLQDNEVLTENEKELVEQEKTRQSKNEALLSMVEKKGDLALDVLFRSISERDPYLVSYLRQQNL	–
